# Source: patent publication US8697366B2, “Anti-cancer drug screening method using RORα” (Seoul National University Industry Foundation, priority 2009, dated 2014)
# “Also recorded” adds a separate entry of the source.
# B1: Wnt5a: a noncanonical Wnt ligand (protein, UniProt P41221 62-380, looked up)
# Protein Wnt-5a: IIGAQPLCSQLAGLSQGQKKLCHLYQDHMQYIGEGAKTGIKECQYQFRHRRWNCSTVDNTSVFGRVMQIGSRETAFTYAVSAAGVVNAMSRACREGELSTCGCSRAARPKDLPRDWLWGGCGDNIDYGYRFAKEFVDARERERIHAKGSYESARILMNLHNNEAGRRTVYNLADVACKCHGVSGSCSLKTCWLQLADFRKVGDALKEKYDSAAAMRLNSRGKLVQVNSRFNSPTTQDLVYIDPSPDYCVRNESTGSLGTQGRLCNKTSEGMDGCELMCCGRGYDQFKTVQTERCHCKFHWCCYVKCKKCTEIVDQFVCK
# How the values were obtained:
# Type in all cases: cell-based
# RORα = assay: Phosphorylation of RORα in HCT116 cells (immunoprecipitation / immunoblot with anti-phospho-Ser or anti-phospho-RORαS35 antibody); conditions: HCT116 cells, treatment alone
# Description: (A) Schematic representation of RORα showing the location of the N-terminal domain (NTD), the DNA-binding domain (DBD), the hinge region, the ligand-binding domain (LBD), and the AF-2 domain. […] HEK293 cells were cotransfected with plasmids expressing each His-tagged RORα deletion construct and β-catenin. Whole cell extracts (left panel) and Ni^+-NTA-agarose pulldown materials (right panel) were analyzed by immunoblotting against anti-β-catenin IgG or anti-Xpress IgG. (C) Illustration of the structure of deletion fragments of RORα(SEQ ID NO:17). (D) Interaction of each RORα deletion construct with HisMax-β-catenin was assessed by Ni^+-NTA-agarose pulldown assay. […] The phosphorylated peptide samples were analyzed by LC-MS analysis. […] Immunoprecipitation assay was conducted with anti-Flag antibody, and the phosphorylated RORα was detected by immunoblot analysis with anti-phospho-Ser antibody. […] The reaction samples were subjected to 12% SDSPAGE, and phosphorylated RORα was detected by autoradiography. […] The fluorescence-conjugated secondary antibody was visualized using fluorescence microscopy, and nuclear staining with DAPI was shown.
# (A) The specificity of the antibody raised against phosphorylated RORαS35 peptide (SEQ ID NO:18) was assessed by dot blot analysis. (B) Treatment of TPA increased phophorylated RORα on S35 site as assessed by immunoprecipitation with anti-phospho-RORαS35 antibody. […]
# cyclin D1 transcript = assay: Real-time quantitative RT-PCR of the cyclin D1 transcript in HCT116 cells
# Description: The abundance of mRNA was detected by an ABI prism 7300 system with SYBR Green (molecular probes). Primer pairs were designed to amplify 90-150 bp mRNA specific fragments, and confirmed to be unique products by melting curve analysis. The PCR conditions were 95° C. (5 min) and 40 cycles of 95° C. (30 s), 57° C. (30 s), and 72° C. (30 s).
# The quantity of mRNA was calculated using the ΔΔCt method and normalized by using primers to detect β-actin or HPRT. All reactions were performed in triplicates.
# [1] = system: HCT116 colon cancer cells; assay: Transwell cell migration assay; conditions: Wnt5a 100 ng/ml pretreatment 2 hr, compared to non-treated cells
# Description: HCT116 cells stably expressing RORα, RORαS35A, or RORαS35D were used in Transwell cell migration assays along with control cells. Transwell cell migration assay was conducted as previously described (Kim et al., 2006). Cultured cells were pretreated with Wnt5a (100 ng/ml) for 2 hr, and 2.5×10^4HCT116 cells were loaded onto the top of a 24-well Transwell chamber assay plate (BD Biosciences). Conditioned McCoy's 5A medium containing 15% fetal bovine serum was added to the bottom chamber as a chemoattractant. After 22 hr incubation, the cells that had migrated to the lower chamber of the filter were fixed with 100% methanol, stained with DAPI, and quantified by counting the total number of cells in four different fields. All experimental studies were performed according to the manufacturer's protocols. Values are expressed as means±standard deviations for at least three independent experiments.
# cyclin D1 = assay: Immunoblot of cyclin D1 expression in colon cancer cells
# Text: (§1) (A) Treatment of Wnt5a increased phosphorylated RORα and PKCα but decreased cyclin D1 expression as assessed by immunoblot analysis against each antibody.
# cyclin D1 promoter = assay: ChIP assay on the cyclin D1 promoter in HCT116 cells
# Description: (A) The specificity of the antibody raised against phosphorylated RORαS35 peptide (SEQ ID NO:18) was assessed by dot blot analysis. (B) Treatment of TPA increased phophorylated RORα on S35 site as assessed by immunoprecipitation with anti-phospho-RORαS35 antibody. […] (D) Treatment of Go6976, a PKCα inhibitor, abolished TPA-dependent phosphorylation of RORα as assessed by immonoblotting with anti-phospho-RORαS35 antibody. (E) HCT116 cells were transfected with Flag-RORα WT, S35D, or S35A, and the cell extracts were immunoprecipitated with anti-Flag antibody followed by immunoblotting against anti-β-catenin antibody. (F) Coimmunoprecipitation assay of β-catenin with either RORαWT or S35A in HCT116 cells after treatment with TPA in the absence or presence of Go6976. (G) ChIP analysis on the cyclin D1 promoter after transfection with Flag-RORαWT, S35A, or S35D in HCT116 cells. (H) ChIP analysis on the cyclin D1 promoter in HCT116 cells after TPA treatment for indicated time. (I) ChIP assay was performed on the cyclin D1 promoter in the absence or presence of siRNA against PKCα with treatment of TPA for 90 min. (J) Real-time quantitative RT-PCR analysis of the cyclin D1 transcript in HCT116 cells in the presence of TPA for indicated time. (K) Knockdown effect of siRNA against RORα or PKCα was assessed in the expression of the cyclin D1 transcript in HCT116 cells.
# (B) Cyclin D1 transcript was measured after introducing siRNAs against RORα or PKCα in the presence of Wnt5a in HCT116 cells. (C) Real-time quantitative RTPCR analysis of the cyclin D1 transcript in HCT116 cells after introducing RORα, S35A, or S35D in the presence of Wnt5a. (D) […] on the cyclin D1 promoter with treatment of either TPA or Wnt5a in HCT116 cells. Occupancy of the cyclin D1 promoter by phosphorylated RORα, β-catenin, RNA polymerase II, H3K9me2, H3K4me2, CBP, pCAF, p300, or SMRT was indicated. (E) Transwell cell migration assay for RORα, RORαS35A, or RORαS35D-expressing HCT116 cells with treatment of Wnt5a. Values are represented as mean±s.d. for three independent experiments. (F) The anchorage-independent growth of HCT116 cells expressing RORα, RORαS35A, or RORαS35D in soft agar. Values are expressed as mean±SEM for two experiments in 6 place wells. Colonies were counted in 10 different fields and total colony number/well was calculated. Representative image is shown for each group.
# The ChIP, two-step ChIP, and shRNA-coupled ChIP assays were conducted as previously described (Baek et al., 2002; Kim et al., 2005).
# PKCα = assay: Immunoblot against anti-phospho-PKCα antibody after Wnt5a treatment; conditions: anti-phospho-PKCα antibody (active form)
# Text: as §1
molecule,measurement,setting,value
B1,phosphorylation of RORα,RORα,increased phosphorylation
same,cyclin D1 transcript,cyclin D1 transcript,reduced
same,migration of HCT116 colon cancer cells,[1],attenuated
same,cyclin D1 expression,cyclin D1,downregulation; also recorded: decreased
same,RNA polymerase II recruitment on the cyclin D1 promoter,cyclin D1 promoter,decreased
same,methylation of histone H3K9 on the cyclin D1 promoter,cyclin D1 promoter,increased methylation
same,"recruitment of CBP, p300, and pCAF coactivators to the cyclin D1 promoter",cyclin D1 promoter,significantly decreased
same,recruitment of phosphorylated RORα on the cyclin D1 promoter,cyclin D1 promoter; anti-phospho-RORαS35 IgG,increased the recruitment
same,phosphorylation of PKCα,PKCα,increased phosphorylation
